# Patent publication US20260176659A1, “IMPROVED METHOD FOR THE PRODUCTION OF NATURAL VANILLIN” (BASE SE, priority 2022, published 2026)
# Values joined by “and” are separate entries in the source; they are usually repeats but may differ in a detail not shown here. Equal entries are not always repeated.
# B1: CO-03: alkene cleavage oxygenase from Sphingomonadales bacterium, SEQ ID NO: 30 (protein, listed as Sphingomonadales bacterium)
# chain: MSLFNRNHPVFSGGNAPVRIETDAICLETDGALPDELKGSYFRLTADPQFPPRLRPVLVEADGHVGAFHFRDNGQVDYVGKWVRTERFLRERAARRALFGTYRNRFTDEESVLDSDRTTANTAFMFHHHKFFALKEDGLPYQLDPETLDTIGRYDFGGTVSAKSLSAHPKVDSRTGELITHSGQAKGEGTPDIAYYVFDKNGTKTVERWFEAPYSSIVHDIAITQDWVVLPIMPAVVEEERLRAGGATYWWKPELGNHIAVFRRDGTGDVRWFRTKATYAFHVVNSYQDGDRLIIDVMDAEEFPMWWPRPEQVAALRSGEIKRDKFVAQLTRWTIDLAGDSDDIERELLHPWEAEMPRIDDRFAGQPYRYAVYGVDDPSFPLAHGLAELGVNHNSVGWWDHQTRTLTSWYTGPNSSVGEPVFTPRSPDAPEGDGFILAVVQRLAEQRSELVVIDTRDVAAGPIASVHAPHRLKNAIHNLWIDQEQLNEGGEKA
# B2: CO-06: alkene cleavage oxygenase, Novosphingobium sp., SEQ ID NO: 38 (protein, listed as Novosphingobium sp.)
# chain: MNIRFPNNDFTSFEAPMRAEIDLKGLEVIQGEVPRQLSGGFFRLIGDRKWPAFVENDIFMLGEDGMASCFYFKDGQVDFKMRYVRTPRFVAEEKAGRALFGHYRNPFSDDPSVAGLSRGTANVTVLVHAGKMLALKEDSPAIELDPFTLETIGEYDWGGVVTAKAITAHPKIDPKTGELVFFGYCAAGPATRDIAYYEADAEGRIIHETWFEAPYTCMVHDIMVTENYVVFPITPLRHELEWIERNEPAFKWDPSEDVYLGVLPRKGKGEQVRWFKGPNQCHGHTVGAFDDGRFIYADNTFSKRSFFHFFPNTDGSEFNPADAMPFIKRLVIDMESNDDSFTEQQMFGYPCELPRIDTRFETMPYNFVTMNLLDVPEQERIGMGFQWVATMDINGQKPAKIYYAGHDCSIGEPQFVPRSDDAAEGDGYILTVVGKHREMRSELLILDAGDITAPPIATVALPFRLRSTGHGYWYGTRQLRGETNIIGAW
# B3: CO-07: alkene cleavage oxygenase, Thermopolyspora flexuosa, SEQ ID NO: 40 (protein, listed as Thermopolyspora flexuosa)
# chain: MVWFPPPKDPFDAPMRVEADIRGVQVTQGEVPEHLDGTYYRCVSDRQWPSYVENDLELFNSDGMIISFRFHKGRVDFKSRYVRTPRFVAEEKAGRALFGAYRNPFDDDPSVAGISRGLANTNVFFHGGKLYASKEDSPPILIDPDTLETIGEYDFEGALTSRTATAHPKFDPVTGEMVFFGYEAKGPGTPDIAYYEADPSGRIIHEAWLEAPYTSMVHDWAVTQNFVIFPIIPLRSDIEWIKKGQSYFQWDPYEDVYLGVMPRKGTAKDLRWYRGSNRFASHIMGAYDDGRYVYIDTPVGQTNYFPWFPDITGAPYDPERSKGYLSRWTIDTQGESDGFTETRLSDLPGEFPRMDDRQETLPYHWGIMLLTDVPGRNAPGGGFRWLMGIDLKTGRKQIYYPGDHCTLGEAIFVPAAPDAPPGVGYVLTVVARRKEMRSDLVLLDAQRLDGEPVCTLSLPMRIRMGVHGNWVSAAELAGRTD
# Tests used:
# Type in all cases: biochemical
# [1] = Spectrophotometric enzymatic assay: cleaving activity, production of vanillin from coniferyl alcohol at 349 nm; settings: for Screening of putative COs: formation of 3a upon 2a cleavage (hit or inactive): spectrophotometric assay
# Experimental: Stock solution 200× of coniferyl alcohol (90 mg) was prepared in ethanol (5 mL) and stored at −20° C. From this, a new stock solution 20× of coniferyl alcohol (10 mM) was freshly prepared by 1:10 dilution in Glycine-NaOH (50 mM, pH 9.0). A cuvette containing 0.750 mL Glycine-NaOH (50 mM, pH 9.0) and 0.05 mL of the substrate 20× stock was pre-warmed at 25° C. for 1.5 mins. Then, the reaction was initiated by the addition of 0.2 mL of the enzyme sample. The cleaving […] activity was measured spectrophotometrically following the production of vanillin at 349 nm (ε349=26.7 mM^−1cm^−1 experimentally determined). One unit of activity (U) is defined as the amount of enzyme required to produce 1 μmol of vanillin per min. Agilent Cary 60 UV-Vis Spectrophotometer was used for all the measurements.
# Searching for alternative novel alkene cleavage oxygenases (COs) catalysing the formation of vanillin from coniferyl alcohol was performed. A set of 27 sequences and 10 COs from different branches of the phylogenetic tree were selected, named CO-02-11. Two additional enzymes were included, which are located in different clusters of the phylogenetic tree: Lignostillbene dioxygenase from Pseudomonas brassicaceraum (PbLSD, PDB: 5V2D) and aromatic dioxygenase (Ado, CO-01) from Thermothelomyces thermophilus (GenBank ID: XP_003665585). The proteins were recombinantly expressed in E. coli BL21(DE3), following the same protocol developed for IECO. […] Putative COs were screened by spectrophotometric assay, monitoring the formation of 3a upon 2a cleavage. From a set of twelve COs, four positive hits, namely CO-01, CO-03, CO-06 and CO-07 were found. Positive variants were tested in the one pot cascade and compared them with IECO In agreement with the spectrophotometric screening, all four COs converted eugenol 1a to vanillin 3a (Table 8). The first step of the cascade is efficiently performed by EUGO, and the substrate is completely consumed. […] Overall, 70±3% conversion of 1a to vanillin 3a was achieved.
# [2] = Bioconversion of eugenol to vanillin: one-pot concurrent cascade EUGO + alkene cleavage oxygenase (5 mM scale); settings: for Reaction composition after 24 hours 1a (%) / Reaction composition after 24 hours 2a (%) / Reaction composition after 24 hours 3a (%) / Reaction composition after 24 hours 5a (%): Table 8a, CO-XX FD-CFE 1 mg/mL; for Reaction composition after 24 hours 1a (%) / Reaction composition after 24 hours 2a (%) / Reaction composition after 24 hours 3a (%) / Reaction composition after 24 hours 5a (%) / Product distribution after 24 hours 2a (%) / Product distribution after 24 hours 3a (%) / Product distribution after 24 hours 5a (%): EUGO FD-CFE 1 mg/mL, catalase 10 mg/mL, eugenol 5 mM; for Product distribution after 24 hours 2a (%) / Product distribution after 24 hours 3a (%) / Product distribution after 24 hours 5a (%): Table 8b, CO-0X FD-CFE 1 mg/mL; for Conversion of 1a to 3a (%) / Reaction composition at 24 hours (%) 1a / Reaction composition at 24 hours (%) 2a / Reaction composition at 24 hours (%) 3a / Reaction composition at 24 hours (%) 5a: replicates of concurrent cascade with EUGO, 5 mM 1a, SD of four experiments; for Conversion of 1a to 3a (%): 24 h
# Experimental: Stock solutions of eugenol (100 mM) were prepared in ethanol or DMSO and stored at −20° C. Unless otherwise stated, the reaction mixtures (0.5 mL) were set up in 1.5 mL glass vials as follows: freeze-dried cell free extract of IECO/CO-XX (3 mg) and EUGO (0.5 mg) were dissolved in the reaction buffer (50 mM glycine-NaOH pH 9.0) containing sodium ascorbate (1 mM), FeSO4 (1 mM) and bovine liver catalase (5 mg, Sigma Aldrich C40). The reaction was initiated by the addition of 0.025 mL eugenol stock (final concentration 5 mM), then incubated at 30° C. and 120 rpm overnight (rotary shaker). The final content of cosolvent was 5% v/v. To improve oxygenation, the vials were placed horizontally. At certain time points, samples (0.2 mL) were quenched with methanol (0.4 mL) and the mixture was centrifuged at 20238 g for 5-10 mins. Finally, the supernatant was analysed by HPLC.
# EUGO (0.5 mg CFE), CO-25 (3 mg CFE) and catalase (5 mg, Sigma product #C40) were dissolved in 50 mM Glycine-NaOH pH 9.0 or Tris-HCl pH 8.0 together with FeSO4 (1 mM) and sodium ascorbate (1 mM). Note that the buffer content of the freeze-dried biocatalyst prep was not considered for the assembling of the reaction. The reaction was started by the addition of 5 mM eugenol from a 20× stock in ethanol. The reactions—performed in glass vials—were then incubated at 30° C. and 120 rpm (25 mm shaker). Finally, samples of the reaction mixture were diluted with MeOH and analyzed by HPLC at 280 and 340 nm.
# [3] = CO-03 activity in presence of eugenol
# Experimental: Stock solutions of coniferyl alcohol (250 mM), eugenol (0-2 M) were prepared in ethanol and stored at −20° C. Unless otherwise specified, the reaction mixtures (0.5 mL) were set up in 1.5 mL glass vials as follows: CO-03 (freeze-dried CFE 5-10 mg/mL) was dissolved in buffer (Glycine-NaOH 50 mM, pH 9.0 or Tris-HCl 50 mM, pH 8.0) with sodium ascorbate (1 mM), FeSO4 (1 mM), bovine liver catalase (Sigma C40, 10 mg/mL) and eugenol (0-100 mM). The final content of ethanol was 5-7% v/v. The reaction was initiated by the addition of coniferyl alcohol (5 mM), and then incubated for 4 hours at 30° C. and 120 rpm (rotary shaker). To improve the oxygenation, the vials were placed horizontally.
# [4] = cascade with EUGO, pH 8.0 and pH 9.0
molecule,measurement,setting,value
B1,Specific Activity (mU/mg of FD-CFE),"[1]; freeze-dried cell free extract incl. buffer salts, vanillin from coniferyl alcohol",7-10 mU/mg
same,Screening of putative COs: formation of 3a upon 2a cleavage (hit or inactive),[1],positive hits
same,Reaction composition after 24 hours 1a (%),[2]; pH 8.0,≤1%
same,Reaction composition after 24 hours 2a (%),[2]; pH 8.0,14%
same,Reaction composition after 24 hours 3a (%),[2]; pH 8.0,78%
same,Reaction composition after 24 hours 5a (%),[2]; pH 8.0,8%
same,Reaction composition after 24 hours 1a (%),[2]; pH 9.0,≤1%
same,Reaction composition after 24 hours 2a (%),[2]; pH 9.0,8%
same,Reaction composition after 24 hours 3a (%),[2]; pH 9.0,81%
same,Reaction composition after 24 hours 5a (%),[2]; pH 9.0,11%
same,Product distribution after 24 hours 2a (%),[2]; pH 8.0,19.6%
same,Product distribution after 24 hours 3a (%),[2]; pH 8.0,72.0%
same,Product distribution after 24 hours 5a (%),[2]; pH 8.0,8.4%
same,Product distribution after 24 hours 2a (%),[2]; pH 9.0,11.9%
same,Product distribution after 24 hours 3a (%),[2]; pH 9.0,74.9%
same,Product distribution after 24 hours 5a (%),[2]; pH 9.0,13.2%
same,amount of 3a in reaction mixture,[2]; [4],78-81%
same,remaining 2 and its oxidation product 5a in the reaction mixture,[2]; [4],~20%
same,Conversion of 1a to 3a (%),[2]; pH 8.0,70 ± 3%
same,Reaction composition at 24 hours (%) 1a,[2]; pH 8.0,1≤ %
same,Reaction composition at 24 hours (%) 2a,[2]; pH 8.0,14 ± 3%
same,Reaction composition at 24 hours (%) 3a,[2]; pH 8.0,80 ± 2%
same,Reaction composition at 24 hours (%) 5a,[2]; pH 8.0,9 ± 1%
same,Conversion of 1a to 3a (%),[2]; pH 9.0,70 ± 3%
same,Reaction composition at 24 hours (%) 1a,[2]; pH 9.0,1≤ %
same,Reaction composition at 24 hours (%) 2a,[2]; pH 9.0,7 ± 2%
same,Reaction composition at 24 hours (%) 3a,[2]; pH 9.0,83 ± 3%
same,Reaction composition at 24 hours (%) 5a,[2]; pH 9.0,10 ± 1%
same,overall conversion of 1a to vanillin 3a in the 2-step cascade,"[2]; with EUGO, 5 mM substrate concentration",70±3% and 70%
same,cleaving activity retained,"[3]; 50 mM 1a, increased biocatalyst amount and modified reaction buffer",49%
same,Residual activity,[3]; at 50 mM 1a,≤ 10%
B2,Screening of putative COs: formation of 3a upon 2a cleavage (hit or inactive),[1],positive hits
same,Reaction composition after 24 hours 1a (%),[2]; pH 8.0,51%
same,Reaction composition after 24 hours 2a (%),[2]; pH 8.0,79%
same,Reaction composition after 24 hours 3a (%),[2]; pH 8.0,5%
same,Reaction composition after 24 hours 5a (%),[2]; pH 8.0,16%
same,Reaction composition after 24 hours 1a (%),[2]; pH 9.0,≤1%
same,Reaction composition after 24 hours 2a (%),[2]; pH 9.0,71%
same,Reaction composition after 24 hours 3a (%),[2]; pH 9.0,6%
same,Reaction composition after 24 hours 5a (%),[2]; pH 9.0,23%
B3,Screening of putative COs: formation of 3a upon 2a cleavage (hit or inactive),[1],positive hits
same,Reaction composition after 24 hours 1a (%),[2]; pH 8.0,51%
same,Reaction composition after 24 hours 2a (%),[2]; pH 8.0,61%
same,Reaction composition after 24 hours 3a (%),[2]; pH 8.0,21%
same,Reaction composition after 24 hours 5a (%),[2]; pH 8.0,18%
same,Reaction composition after 24 hours 1a (%),[2]; pH 9.0,51%
same,Reaction composition after 24 hours 2a (%),[2]; pH 9.0,50%
same,Reaction composition after 24 hours 3a (%),[2]; pH 9.0,27%
same,Reaction composition after 24 hours 5a (%),[2]; pH 9.0,23%
